# From the RNAGym collection of RNA variant scans (doi:10.1073/pnas.2313332121)
# B1: TPR t1 (parent)
# chain: GACCAAUCUGCCCUCAGAGCUCGAGAACAUCUUCGGAUGCAGAGGAGGCAGGCUUCGGUGGCGCGAUAGCGCCAACGUCCUCAACCUCCAAUGCAUCCCACCACAUGAUGAUGCCUGAAGAGCCUUGGUUUUUUG
# Variants of: B1
# Assay: polymerase ribozyme fitness, log enrichment relative to wild type (log ratio); higher = more active; in vitro selection for triplet polymerase activity
# Outline: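 A heterodimeric triplet polymerase ribozyme had each of its subunits mutagenized by PCR into a library, which was transcribed. One round of in vitro selection, done in triplicate, annealed each library with a biotinylated primer, its partner subunit and triplets, then incubated it frozen at −7 °C before gel excision of extended constructs, streptavidin-bead capture and RT-PCR. Fitness is the logarithm of genotype enrichment relative to wild-type enrichment, based on Illumina sequencing of inputs and outputs and inverse-variance-weighted replicate averages. A base-2 logarithm is used, and genotypes were kept only with ≥10 input reads and ≥1 read per output.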
row,Variant,polymerase ribozyme fitness (log ratio)
1,GACCAAUCUGCCCUCAGAGCUCGAGAACAUCUUCGGAUGCAGAGGAAGCAGGCUUUGGUGGCGCGAUAGCGCCAACGUCCUCAACCUCCAAUGUAUCCCACCACAUGAUGAUGCCUGAAGAGCCUUGGUUUUUUG [G47A C56U C94U],-1.1
2,GACCAAUCUGCCCUCAGAGCUCGAGAACAUCUUCGGAUGCAGAGGAAGCAGGCUUCGGUGGCGCGAUAGCGCCAACGUCCUCAACCUCCAAUGCAUCCCACCACAUGAUGAUGCCUGAAGAGCGUUGGUUUUUUG [G47A C124G],0.559
3,GACCAAUCUGCCCUCAGAGCUCGAGAACAUCUUCGGAUGCAGAGGAAGCAGGCUUCGGUGGCGCGAUAGCGCCAACGUCCUCAAUCUCCAAUGCAUCCCAUCACAUGAUGAUGCCUGAAGAGCCUUGGUUUUUUG [G47A C85U C101U],-2.15
4,GACCAAUCUGCCCUCAGAGCUCGAGAACAUCUUCGGAUGCAGAGGAAGCACGCUUCGGUGGCUCGAUAGCGCCAACGUCCUCAACCUCCAAUGCAUCCCACCACAUGAUGAUGCAUGAAUAGCCUUGGUUGUUUG [G47A G51C G63U C115A G120U U131G],-4.36
5,GACCAAUCUGCCCUCAGAGCUCGAGAACAUCUUCGGAUGCAGAGGAAGCAGGCUUCGGUGGGGCGAUAGCGUCAACGUCCUCAACCUCCAAUGCAUCCCACCACAUGAUGAUGCCUGAAGAGCCUUGGUUUUUUG [G47A C62G C72U],-4.13
6,GACCAAUCUGCCCUCAGAGCUCGAGAACAUCUUCGGAUGCAGAGGAAGCAGGGUUCGGUGGCGCGAUAGCGCCAACGUCCUCAACCUCCAAUGCAUCCCAUCACAUGAUGAUGCCUGAAGAGCCUUGGUUAUUUG [G47A C53G C101U U131A],-1.26
7,GACCAAUCUGCCCUCAGAGCUCGAGAACAUCUUCGGAUGCAGAGGAAGCAGGCUUCGGUGGCGCGAUAGCGCCAACGUCCUCAACCUCCAAUGCAUCCCACCACAUGAUGAUGCUUGAAGAGCCUUGGUUUUUUG [G47A C115U],-2.3
8,GACCAAUCUGCCCUCAGAGCUCGAGAACAUCUUCGGAUGCAGAGGAAGCAGGCUUCGGUGGCGCGAUAGCGCCAACGUCCUCAAACUCCAAUGCAUCCCACCACAUGAUGAUGCCUGAAGAGCCUUGGUUUUUUG [G47A C85A],-2.48
9,GACCAAUCUGCCCUCAGAGCUCGAGAACAUCUUCGGAUGCAGAGGAAGCAGGCUUCGGUGGCGCGAUAGAGCCAACAUUCUCAACGUCCAAUGCAUCCCACCACAUGAUGAUGCCUGAAGAGCCUUGGUUUUUUG [G47A C70A G77A C79U C86G],-5.44
10,GACCAAUCUGCCCUCAGAGCUCGAGAACAUCUUCGGAUGCAGAGGAAGCAGGCUUCGGUGGCGCGAUAGCGCCAAAGUCCUCAACCUCCAAUGCAUCCCACCACAUGAUGAUGCUUGAAGAGCCUUGGUUUUUUG [G47A C76A C115U],-3.07
11,GACCAAUCUGCCCUCAGAGCUCGAGAACAUCUUCGGAUGCAGAGGAAGCAGGCUUAGGUGGCGCGAUAGCGCCAACGUCCUCAACCUCCAAUGCAUCCCACCACAUGAUGAUUACUGAAGGGCCUUGGUUUUUUG [G47A C56A G113U C114A A121G],-2.45
12,GACCAAUCUGCCCUCAGAGCUCGAGAACAUCUUCGGAUGCAGAGGAAGCAGGCUUCGGUGGCGCGAUAGCGCCAACGUUCUCAACCUCCAAUGCAUCCCUCCACAUGAUGUUGCCUGAAAAGCCGUGGUUACUUG [G47A C79U A100U A111U G120A U125G U131A U132C],-6.42
13,GACCAAUCUGCCCUCAGAGCUCGAGAACAUCUUCGGAUGCAGAGGAAGCAGGCUUCGGUGGCGCGAUAGCGCCAACGUCCUCAACCUCCAAUGCAUCCCACUACAUGAUGAUGCCUGAAGAGCCUUGGUUUUUUG [G47A C102U],-2.85
14,GACCAAUCUGCCCUCAGAGCUCGAGAACAUCUUCGGAUGCAGAGGAAGCAGGCUUCGGUGGCGCGAUAGCGGCAACGUCCUCAACCUCCAAUGCAUCCCACCACAUGAUGAUGCCUGAAGAGCCUUGGUUUUUUG [G47A C72G],-0.62
15,GACCAAUCUGCCCUCAGAGCUCGAGAACAUCUUCGGAUGCAGAGGAAGCAGGCUUCGGUGGCGCGAUAGGGCCAACGUCCUCAACCUCCAAUGCAUCCCACCACAUGAUGAUGCCUGAAGAGCCUUGGUUUUUUG [G47A C70G],-4.77
16,GACCAAUCUGCCCUCAGAGCUCGAGAACAUCUUCGGAUGCAGAGGAAGCAGGCUUCGGUGGCGCGAUAGCGUCAACGACCUCAACCUACAAUGCAUCCCACCACAUGAUGAUGCCUGAUGAGCCUUGGUUUCUUG [G47A C72U U78A C88A A119U U132C],-1.87
17,GACCAAUCUGCCCUCAGAGCUCGAGAACAUCUUCGGAUGCAGAGGAAGCAGGCUUCGGUGGCGCGAUAGCGCCAACGUCCUCAACCUUCAAUGCAUCCCACCACAUGAUGAUGCCUGAAGAGCCUUGGUUUUUUG [G47A C88U],-0.911
18,GACCAAUCUGCCCUCAGAGCUCGAGAACAUCUUCGGAUGCAGAGGAAACAGGCUUCGGUGGCGCGAUAGCGCCAACGUCCUCAACCUCCAAUGCAUCCCACCACAUGAUGAUGCCUGGAGAGCCUUGGUUUUUUG [G47A G48A A118G],-2.29
19,GACCAAUCUGCCCUCAGAGCUCGAGAACAUCUUCGGAUGCAGAGGAAGCAGGCUUCGGUGUCGCGAUAGCGCCAACGUCCUCAACCUCCAAUGCAUCCCACCACAUGAUGAUGCCUGAAGAGCCUUGGUUUUUUG [G47A G61U],-1.24
20,GACCAAUCUGCCCUCAGAGCUCGAGAACAUCUUCGGAUGCAGAGGAAGCAGGCUUCGAUGGUGCGAUAGCGCCAACGUCCUCAACCUCCAAUGCAUCCCAUCACAUGGUGAUGCCUGAAGAGCCUUGGUUUUUUG [G47A G58A C62U C101U A108G],-2.41
21,GACCAAUCUGCCCUCAGAGCUCGAGAACAUCUUCGGAUGCAGAGGAAGUAGGCUUCGGUGGCGCGAUAGCGCCAACGUCCUCAACCUCCAAUGCAUCCCACCACAUGAUGAUGCCUGAAGAGCCUUGGUUUUUUG [G47A C49U],-0.915
